Data: patent US20070092518A1 (published 2007)
Positions count from the first letter of the chain named.

B1: SEQ ID NO 58 (Fab, V domains shown)
VH: EVQLTESGGGLVQPGGSLRLSCAASQFIFSNHWMNWVRQAPGKGLEWIGEIRSKSSNSATSYAESVKGRFIISRDDNGNDLYLEMNSLKTEDTAEYYCAQNYYGSTYDYWGQGTLVTVS
VL: EIVLTQSPDFQSVTPKEKVTITCRASQFVGSSIHWYQQKPDQSPKLLIKYASESMSGVPSRFSGSGSGTDFTFTISSLEAEDAATYYCQQSHSWPFTFGPGTKVDIK
notes: Fab, E. coli lysate
B2: SEQ ID NO 61 (Fab, V domains shown)
VH: B1 VH with T5V, A23R, Q26G, W33Y, S56I, N57Y, S58G, S61H, D76G, Q100R
VL: B1 VL
notes: Fab, E. coli lysate
B3: SEQ ID NO 64 (Fab, V domains shown)
VH: B1 VH with I28T, S56I, N57Y, S58G, S61H, G78K, N79T, D80S, Q100R, Y107P
VL: B1 VL
notes: Fab, E. coli lysate
B4: SEQ ID NO 65 (Fab, V domains shown)
VH: B1 VH with T5V, A23R, Q26G, S56I, N57Y, S58G, S61H, G78K, D80S
VL: B1 VL
notes: Fab, E. coli lysate
B5: SEQ ID NO 66 (Fab, V domains shown)
VH: EVQLTESGGGLVQPGGSLRLSCRASGFTFSNHYMNWVRQAPGKGLEWIGEIRSKSIYSATHYAESVKGRFIISRDDNKTDLTLEMNSLKTEDTAEYYCARNYYGSTYDYWGQGTLVTVS
VL: B1 VL
notes: Fab, E. coli lysate
B6: SEQ ID NO 67 (Fab, V domains shown)
VH: B5 VH with D76G, Y107P
VL: B1 VL
notes: Fab, E. coli lysate
B7: SEQ ID NO 68 (Fab, V domains shown)
VH: B5 VH with G26Q, T28I, Y33W, Y57N, T79N
VL: B1 VL
notes: Fab, E. coli lysate
B8: SEQ ID NO 69 (Fab, V domains shown)
VH: B1 VH with T5V, A23R, I28T, S61H, D76G, D80S, Q100R
VL: B1 VL
notes: Fab, E. coli lysate
B9: SEQ ID NO 72 (Fab, V domains shown)
VH: B5 VH with F27S, T28I, D76G, K78G, D80S, T82Y, R100Q
VL: B1 VL
notes: Fab, E. coli lysate
B10: SEQ ID NO 73 (Fab, V domains shown)
VH: B5 VH with T5V, F27S, T28I, I56S, S58G, H61S, T79N, R100Q, Y107P
VL: B1 VL
notes: Fab, E. coli lysate
B11: SEQ ID NO 74 (Fab, V domains shown)
VH: B5 VH with R23A, F27S, Y33W, I56S, H61S, T79N, D80S, Y107P
VL: B1 VL
notes: Fab, E. coli lysate
B12: SEQ ID NO 75 (Fab, V domains shown)
VH: B5 VH with T5V, Y33W, T79N, D80S, Y107P
VL: B1 VL
notes: Fab, E. coli lysate
B13: SEQ ID NO 76 (Fab, V domains shown)
VH: B5 VH with T28I, Y57N, S58G, K78G, D80S, T82Y
VL: B1 VL
notes: Fab, E. coli lysate
B14: SEQ ID NO 77 (Fab, V domains shown)
VH: B1 VH with T5V, Q26G, F27S, I28T, W33Y, S56I, N57Y, D80S
VL: B1 VL
notes: Fab, E. coli lysate
B15: SEQ ID NO 79 (Fab, V domains shown)
VH: B5 VH with T5V, R23A, G26Q, F27S, T28I, S58G, D76G, T79N, Y107P
VL: B1 VL
notes: Fab, E. coli lysate
B16: SEQ ID NO 81 (Fab, V domains shown)
VH: B5 VH with T5V, F27S, Y57N, H61S, D76G, K78G, R100Q
VL: B1 VL
notes: Fab, E. coli lysate
B17: SEQ ID NO 83 (Fab, V domains shown)
VH: B1 VH with A23R, Q26G, W33Y, S56I, S58G, D80S, Q100R, Y107P
VL: B1 VL
notes: Fab, E. coli lysate
B18: SEQ ID NO 84 (Fab, V domains shown)
VH: B1 VH with T5V, F27S, I28T, N57Y, S61H, D76G, G78K, Q100R
VL: B1 VL
notes: Fab, E. coli lysate
B19: SEQ ID NO 85 (Fab, V domains shown)
VH: B1 VH with A23R, Q26G, S58G, D76G, N79T, D80S, Y82T
VL: B1 VL
notes: Fab, E. coli lysate
B20: SEQ ID NO 87 (Fab, V domains shown)
VH: B5 VH with T5V, R23A, Y33W, I56S, Y57N, D76G, D80S, T82Y
VL: B1 VL
notes: Fab, E. coli lysate
B21: SEQ ID NO 88 (Fab, V domains shown)
VH: B1 VH with T5V, Q26G, I28T, D76G, G78K, Y82T, Q100R
VL: B1 VL
notes: Fab, E. coli lysate
B22: SEQ ID NO 89 (Fab, V domains shown)
VH: B5 VH with T5V, G26Q, Y57N, S58G, H61S, K78G, T82Y
VL: B1 VL
notes: Fab, E. coli lysate
B23: SEQ ID NO 91 (Fab, V domains shown)
VH: B1 VH with F27S, W33Y, S56I, S61H, D76G, G78K, Q100R, Y107P
VL: B1 VL
notes: Fab, E. coli lysate
B24: SEQ ID NO 92 (Fab, V domains shown)
VH: B1 VH with T5V, Q26G, F27S, S61H, D76G, G78K, Y82T, Q100R
VL: B1 VL
notes: Fab, E. coli lysate
B25: SEQ ID NO 93 (Fab, V domains shown)
VH: B5 VH with I56S, S58G, K78G, T82Y, R100Q, Y107P
VL: B1 VL
notes: Fab, E. coli lysate
B26: SEQ ID NO 94 (Fab, V domains shown)
VH: B5 VH with T5V, F27S, T28I, Y33W, Y57N, S58G, K78G, D80S, T82Y
VL: B1 VL
notes: Fab, E. coli lysate
B27: SEQ ID NO 95 (Fab, V domains shown)
VH: B5 VH with F27S, I56S, Y57N, H61S, D80S, T82Y
VL: B1 VL
notes: Fab, E. coli lysate
B28: SEQ ID NO 97 (Fab, V domains shown)
VH: B1 VH with A23R, Q26G, F27S, I28T, S58G, N79T
VL: B1 VL
notes: Fab, E. coli lysate
B29: SEQ ID NO 98 (Fab, V domains shown)
VH: B5 VH with Y33W, I56S, Y57N, S58G, D76G, T82Y, Y107P
VL: B1 VL
notes: Fab, E. coli lysate
B30: SEQ ID NO 99 (Fab, V domains shown)
VH: B1 VH with T5V, Q26G, F27S, W33Y, S58G, S61H, G78K, D80S
VL: B1 VL
notes: Fab, E. coli lysate
B31: SEQ ID NO 100 (Fab, V domains shown)
VH: B5 VH with G26Q, T28I, Y57N, S58G, T82Y
VL: B1 VL
notes: Fab, E. coli lysate
B32: SEQ ID NO 101 (Fab, V domains shown)
VH: B1 VH with T5V, A23R, Q26G, I28T, W33Y, D80S, Y107P
VL: B1 VL
notes: Fab, E. coli lysate
B33: SEQ ID NO 102 (Fab, V domains shown)
VH: B5 VH with T5V, T28I, Y33W, Y57N, S58G, D80S, T82Y
VL: B1 VL
notes: Fab, E. coli lysate
B34: SEQ ID NO 104 (Fab, V domains shown)
VH: B1 VH with A23R, W33Y, S56I, S61H, G78K, Y107P
VL: B1 VL
notes: Fab, E. coli lysate
B35: SEQ ID NO 105 (Fab, V domains shown)
VH: B1 VH with Q26G, W33Y, S58G, D80S, Y82T, Y107P
VL: B1 VL
notes: Fab, E. coli lysate
B36: SEQ ID NO 106 (Fab, V domains shown)
VH: B1 VH with T5V, S58G, D76G, G78K, N79T, Y82T
VL: B1 VL
notes: Fab, E. coli lysate
B37: SEQ ID NO 108 (Fab, V domains shown)
VH: B5 VH with R23A, G26Q, H61S, D76G, T79N, D80S, R100Q
VL: B1 VL
notes: Fab, E. coli lysate

Each binder was assayed against T1, human tumor necrosis factor-α (rHuTNF-alpha, Biosource) (human, UniProt P01375 77-233) (assay: solid-phase ELISA, Fab lysate on coated rHuTNF-alpha).
T1 construct: Bought recombinant protein coated on ELISA plates; The TNFα of the Biacore assay is not described further; also called TNFα; human TNFα
T1 sequence (P01375 77-233 limits assumed): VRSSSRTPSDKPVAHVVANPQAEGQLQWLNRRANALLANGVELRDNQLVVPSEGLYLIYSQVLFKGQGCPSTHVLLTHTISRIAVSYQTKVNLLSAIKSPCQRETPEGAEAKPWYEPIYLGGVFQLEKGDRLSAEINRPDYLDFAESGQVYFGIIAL
Experimental: The Fab libraries were cloned into pTrcHis2A (Cat. No. V365-20, Invitrogen, Carlsbad, Calif.). Proteins were expressed in E. coli and solid-phase ELISA was used to assess Fab binding to human TNFα. Briefly, 96-well plates were coated overnight at 4° C. with 1 μg/ml of rHuTNF-alpha (Biosource, Camarillo, Calif.) in Carbonate-bicarbonate buffer, pH9.4. After washing in PBS with 0.05% (w/v) Tween-20, the wells were blocked with 1% (w/v) BSA in PBS for 1 hour at room temperature. After washing, plates were incubated with transformed E. coli cell lysate diluted in the assay buffer (1% BSA and 0.05% Tween-20 in 10 mM PBS) for 2 hours at room temperature. Various concentrations of infliximab (0.5, 1 and 2 ng/ml) were used as positive anti-Human Kappa Light Chain Biotin/anti-penta-His Biotin control. Plates were washed and incubated with ImmunoPure Goat Anti-Human Kappa Chain, Biotin Conjugated (Cat. No. 31780, Pierce Biotechnology, Rockford, Ill.) and Penta-His Biotin Conjugate (Cat. No. 34440, QIAGEN, Valencia, Calif.) diluted 1:2000 in the assay buffer for 1 hour at room temperature. Following another washing step, plates were probed for 1 hour at room temperature with 100 μL/well of Streptavidin POD (Cat. No. 1089153, Roche Applied Science, Indianapolis, Ind.) diluted 1:4000 in the assay buffer. Plates were further washed and then incubated with 3,3′,5,5′-tetramentylbenzidine (TMB, Cat. No. 34028, Pierce Biotechnology) for 30 minutes. Substrate development was stopped by addition of 100 μL/well TMB Stop Solution (Cat. No. 50-85-05, KPL, Gaithersburg, Md.) and the absorbance was measured at 450 nm via an automated plate spectrophotometer.
B1: binds.
B2: binds.
B3: binds.
B4: binds.
B5: binds.
B6: binds.
B7: binds.
B8: binds.
B9: binds.
B10: binds.
B11: binds.
B12: binds.
B13: binds.
B14: binds.
B15: binds.
B16: binds.
B17: binds.
B18: binds.
B19: binds.
B20: binds.
B21: binds.
B22: binds.
B23: binds.
B24: binds.
B25: binds.
B26: binds.
B27: binds.
B28: binds.
B29: binds.
B30: binds.
B31: binds.
B32: binds.
B33: binds.
B34: binds.
B35: binds.
B36: binds.
B37: binds.
